# Measured values as given in patent US20020164767.
# Test system: PFEK-protease C-E-6XHIS zymogen
# Sequence (chain, as listed by the source): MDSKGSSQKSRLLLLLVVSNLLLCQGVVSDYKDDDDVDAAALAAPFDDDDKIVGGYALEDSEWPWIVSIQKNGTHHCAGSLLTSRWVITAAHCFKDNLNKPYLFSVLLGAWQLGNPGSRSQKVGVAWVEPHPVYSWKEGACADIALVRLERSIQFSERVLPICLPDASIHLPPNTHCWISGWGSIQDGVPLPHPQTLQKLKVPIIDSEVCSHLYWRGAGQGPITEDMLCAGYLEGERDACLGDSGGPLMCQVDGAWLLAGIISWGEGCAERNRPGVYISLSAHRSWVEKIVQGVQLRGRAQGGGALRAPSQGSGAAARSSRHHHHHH
substance,measurement,value
enterokinase,cleavage of the zymogen (SDS-PAGE and anti-FLAG Western blot),This demonstrates the quantitative cleavage of the expressed and purified zymogen to generate the processed and activated protease
